Measurements: patent US20250145926A1, “DEVICES, METHODS, AND SYSTEMS FOR ASSESSING CELL MIGRATION AND RELATED PROCESSES” (University of Washington, priority 2023, published 2025)

Test system: differentiated HL-60 neutrophils
Test: vE/D ratio and ectodomain charge estimation, under-agarose cells immobilized with Latrunculin A in an electric field
Format: cell-based, human
Details: averaged across all electric field conditions; ± SEM
Experimental: Experimental Setup. Cells were resuspended to a concentration of 2×10^6 cells/ml in L-15 Medium with 10% hiFBS. With an ibiTreat μ-Slide-I (Ibidi, #80106) placed on a 37° C. heat block, 100 μL of cells were added to the channel and incubated for 5 minutes to allow them to sediment and loosely adhere to the bottom coverslip. Warm, liquid 2.5% UltraPure low melting point agarose (Invitrogen of Waltham, MA, #16520-050) in L-15 with 10% hiFBS was added to one channel reservoir and then centrifuged at 28-37° C. for 5 min at 700 g. This was performed in a custom 3D-printed swinging bucket rotor plate adaptor (design available upon request). Immediately after centrifugation, the slide was incubated on a 20° C. cooling plate (STIR-KOOL, Ladd Research of Essex Junction, VT; #SK-12D-AW) for 5 minutes to gel. […] L-15 media with 10% hiFBS was added to both reservoirs. […]
Quantification of vE/D Ratio and Estimation of Charge. […] Under the imaging conditions (800 nm axial resolution), the measured fluorescence intensities will reflect fluorescence predominantly at this surface, and the biological system is treated as a flat two-dimensional surface. […]

B1: Galvanin: single-pass transmembrane protein (161 amino acids, UniProt ID: Q6P9G4), electric field sensor (protein)
chain: NYEELENSGDTTVESERPNKVTIPSTFAAVTIKETLNANINSTNFAPDENQLEFILMVLIPLILLVLLLLSVVFLATYYKRKRTKQEPSSQGSQSALQTYELGSENVKVPIFEEDTPSVMEIEMEELDKWMNSMNRNADFECLPTLKEEKESNHNPSDSES
With B1 as the molecule, how does the “net charge estimated from vE/D” value read?
The value was −18 e.
